Assay results reported in article PMC4813732.

Tests used:
Human thrombin (human) [1] = biological target: Human thrombin (human)
Human thrombin (human) [2] = biological target: Human thrombin (human); remark: listed apart in the source

| heparin cofactor activity (residual thrombin activity at the end of thrombin inactivation in the presence of heparin; phAT as standard) (Human thrombin (human) [1]) [IU/mg] | second-order rate constant of thrombin inhibition, with heparin (residual thrombin activity on S-2238, 25°C, pH 7.4) (Human thrombin (human) [2]) | second-order rate constant of thrombin inhibition, without heparin (residual thrombin activity on S-2238, 25°C, pH 7.4) (Human thrombin (human) [2]) | Substance |
| --- | --- | --- | --- |
| 0.35 |  |  | latent form of recombinant human antithrombin (from UniProt P01008 33-464) (natural protein) |
| 5.49 | 1.9e+07 /M/s |  | α-form of recombinant human antithrombin bearing sialylated biantennary complex-type N-linked oligosaccharides lacking a core fucose (from UniProt P01008 33-464) (natural protein) |

The next lines start with the substance.

| Substance | heparin cofactor activity (residual thrombin activity at the end of thrombin inactivation in the presence of heparin; phAT as standard) (Human thrombin (human) [1]) [IU/mg] | second-order rate constant of thrombin inhibition, with heparin (residual thrombin activity on S-2238, 25°C, pH 7.4) (Human thrombin (human) [2]) | second-order rate constant of thrombin inhibition, without heparin (residual thrombin activity on S-2238, 25°C, pH 7.4) (Human thrombin (human) [2]) |
| --- | --- | --- | --- |
| α-form of recombinant human antithrombin bearing high-mannose-type N-linked oligosaccharides (from UniProt P01008 33-464) (natural protein) | 5.83 | 1.9e+07 /M/s | 6600 /M/s |
| β-form of recombinant human antithrombin bearing high-mannose-type N-linked oligosaccharides (from UniProt P01008 33-464) (natural protein) | 5.8 | 1.9e+07 /M/s | 6100 /M/s |
| β-form of recombinant human antithrombin bearing sialylated biantennary complex-type N-linked oligosaccharides lacking a core fucose (from UniProt P01008 33-464) (natural protein) | 5.66 | 2e+07 /M/s | 7300 /M/s |
